Results published in patent US20210130484A1 (SORRENTO THERAPEUTICS, published 2021).

Biological target: T1, Recombinant human his-tagged CD38 protein (human, UniProt P28907 43-300)
T1 construct: not shown: his tag
Assay: SPR (Biacore T200, 25 C), antibody captured on anti-human Fc CM5 chip, his-tagged human CD38 as analyte, steady state affinity model
Protocol: Binding kinetics of parent antibody CD38 A2 and variant antibody CD38 A2 SV was measured using surface plasmon resonance (SPR). Kinetic interaction between the parent or variant antibody and a his-tagged CD38 protein were measured at 25° C. using Biacore T200 surface plasmon resonance (GE Healthcare). Anti-human fragment crystallizable region (Fc region) antibody was immobilized on a CM5 sensor chip to approximately 8000 resonance units (RU) using standard N hydroxysuccinimide/N Ethyl-N′-(3-dimethylaminopropyl) carbodiimide hydrochloride (NHS/EDC) coupling methodology. The CD38 A2 parent antibody or CD38 A2 SV variant antibody (2 μg/mL) was captured for 60 seconds at a flow rate of 10 μL/minute. Recombinant human his-tagged CD38 protein was serially diluted in a running buffer of 0.01 M HEPES pH 7.4, 0.15 M NaCl, 3 mM EDTA, 0.05% v/v Surfactant P20 (HBS EP+). All measurements were conducted in HBS-EP+buffer with a flow rate of 30 μL/minute. Steady state affinity model was used to get affinity. The sensorgrams of the CD38 A2 parent antibody and CD38 A2 SV variant antibody are shown in FIGS. 3A and B, respectively, and their corresponding binding kinetics are listed in Table 3 below.

B1: variant antibody CD38 A2 SV (antibody, V domains shown)
VH: QVQLVESGGGLVKPGGSLRLSCAASGFTFSDDYMSWIRQAPGKGLEWVASVSNGRPTTYYADSVRGRFTISRDNAKNSLYLQMNSLRAEDTAVYYCAREDWGGEFTDWGRGTLVTVSS
VL: QSVLTQPPSASGTSGQRVTISCSGSSSNIGINFVYWYQHLPGTAPKLLIYKNNQRPSGVPDRFSGSKSGNSASLAISGLRSEDEADYYCAAWDDSLSGYVFGSGTKVTVL
notes: also called CD38-A2 SV mutant; CD38 A2 SV variant antibody
- Kd: 15.6 nM
